Assay results taken from patent US20170299608A1 (NGM BIOPHARMACEUTICALS, published 2017).

B1: mature human GDF15 (112 amino acids) (ligand)
chain: ARNGDHCPLGPGRCCRLHTVRASLEDLGWADWVLSPREVQVTMCIGACPSQFRAANMHAQIKTSLHRLKPDTVPAPCCVPASYNPMVLIQKTDTGVSLQTYDDLLAKDCHCI
notes: also called hGDF15; unlabeled GDF15
B2: ^125I-GDF15 (radio-iodinated mature human GDF15) (ligand)
chain: B1 chain
modifications: 125I label, site not stated
notes: Labelled form of m1; also called radio-labeled GDF15

Tests used:
[1] = molecular target: T1, human GFRAL, full length, expressed on HEK293 / HEK293T cells (human, UniProt Q6UXV0 20-394); experiment: radio-ligand competition: unlabeled GDF15 displacing 0.15 nM ^125I-GDF15 from HEK293-GFRAL cells
T1 construct: Its signal peptide is printed as the lowercase residues 1-19, and the mature protein starts at Q20; also called hGFRAL; HEK293-GFRAL cells
T1 sequence: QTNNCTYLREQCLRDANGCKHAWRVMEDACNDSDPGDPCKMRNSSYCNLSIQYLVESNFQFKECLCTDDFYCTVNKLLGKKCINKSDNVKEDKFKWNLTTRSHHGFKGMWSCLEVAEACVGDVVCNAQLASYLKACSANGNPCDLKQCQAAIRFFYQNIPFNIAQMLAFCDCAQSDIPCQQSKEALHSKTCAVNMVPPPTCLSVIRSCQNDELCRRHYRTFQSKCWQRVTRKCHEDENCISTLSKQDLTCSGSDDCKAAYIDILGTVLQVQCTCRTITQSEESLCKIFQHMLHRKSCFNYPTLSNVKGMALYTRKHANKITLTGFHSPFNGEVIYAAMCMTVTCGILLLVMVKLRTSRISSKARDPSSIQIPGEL
Method: HEK293-GFRAL cells were suspended in ice-cold binding buffer (Dulbecco's modified Eagle's medium containing 2 mg/ml BSA, and 25 mM HEPES, pH 7.4) and transferred to pre-wetted Multiscreen filter plates (96-well Dura PVDF 0.65 um Opaque; Millipore), which were kept on ice. Typically, 1×10⁵ of cells in 25 μl were used per well. […] Plates were then transferred to a vacuum filtration manifold (Pall Corporation) and supernatants were filtered. Each well was washed four times with 100 μl of ice cold binding buffer. Bound ¹²⁵I-GDF15 (CPM) were measured by scintillation counting (150 μl/well of EcoLite, MP Biomedicals, Santa Anna, Calif.) using MicroBeta2 Plate Counter (Perkin Elmer). The concentrations (in nM) of unlabeled inhibitors used in this experiment are as follows. GDF15 and GFRAL-Fc: 100, 25, 6.25, 1.56, 0.39, 0.098, 0.024, 0.006; 1M03: 1000, 250, 62.5, 15.63, 3.91, 0.98, 0.24, 0.06.

[2] = molecular target: T2, mouse GFRAL, expressed on HEK293T cells (mouse, UniProt Q6SJE0 20-393); experiment: cell-based or functional assay
T2 sequence: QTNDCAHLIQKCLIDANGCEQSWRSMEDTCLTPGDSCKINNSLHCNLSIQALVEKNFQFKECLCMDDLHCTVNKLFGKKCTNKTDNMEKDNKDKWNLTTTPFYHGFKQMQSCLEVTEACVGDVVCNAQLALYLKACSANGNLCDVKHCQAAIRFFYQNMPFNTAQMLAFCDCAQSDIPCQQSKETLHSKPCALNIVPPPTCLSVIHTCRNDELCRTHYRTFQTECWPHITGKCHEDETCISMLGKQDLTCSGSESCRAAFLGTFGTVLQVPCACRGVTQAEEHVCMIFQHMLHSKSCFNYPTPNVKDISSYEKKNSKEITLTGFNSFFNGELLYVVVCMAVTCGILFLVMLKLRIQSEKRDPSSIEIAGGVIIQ

[3] = molecular target: T3, rat GFRAL, expressed on HEK293T cells (rat, UniProt D3ZB94 20-394); experiment: cell-based or functional assay
T3 sequence: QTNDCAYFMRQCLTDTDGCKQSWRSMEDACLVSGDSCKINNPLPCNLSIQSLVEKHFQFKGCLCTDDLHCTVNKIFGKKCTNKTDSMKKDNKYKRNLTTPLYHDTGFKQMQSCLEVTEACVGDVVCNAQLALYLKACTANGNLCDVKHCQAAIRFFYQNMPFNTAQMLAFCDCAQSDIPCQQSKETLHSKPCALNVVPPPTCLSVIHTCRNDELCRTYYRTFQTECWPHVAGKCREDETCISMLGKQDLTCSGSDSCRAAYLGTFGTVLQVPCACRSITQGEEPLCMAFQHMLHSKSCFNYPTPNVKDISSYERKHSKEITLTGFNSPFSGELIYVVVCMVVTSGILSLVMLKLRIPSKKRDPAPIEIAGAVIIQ

[4] = molecular target: T4, cynomolgus monkey GFRAL, expressed on HEK293T cells (cynomolgus monkey, UniProt Q6UXV0 19-394 (human entry)); experiment: cell-based or functional assay
T4 chain: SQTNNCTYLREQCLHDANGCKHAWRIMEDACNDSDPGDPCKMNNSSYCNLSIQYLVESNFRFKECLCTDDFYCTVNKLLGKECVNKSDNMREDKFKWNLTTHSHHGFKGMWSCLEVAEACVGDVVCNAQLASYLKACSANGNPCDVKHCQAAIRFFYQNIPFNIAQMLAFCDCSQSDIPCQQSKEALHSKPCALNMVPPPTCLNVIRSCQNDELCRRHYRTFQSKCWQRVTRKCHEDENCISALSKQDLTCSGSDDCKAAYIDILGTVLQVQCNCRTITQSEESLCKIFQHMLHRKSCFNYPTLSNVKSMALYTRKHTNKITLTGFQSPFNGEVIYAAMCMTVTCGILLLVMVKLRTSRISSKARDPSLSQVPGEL

[5] = molecular target: T1, human GFRAL, full length, expressed on …; experiment: cell-based or functional assay
[6] = molecular target: T1, human GFRAL, full length, expressed on …; experiment: radioligand saturation binding to HEK293 cells expressing human GFRAL, equilibrium, 2 hr at 4 °C
Method: HEK293 or HEK293-human GFRAL cells were suspended in ice-cold binding buffer (Dulbecco's modified Eagle's medium containing 2 mg/ml BSA, and 25 mM HEPES, pH 7.4) and transferred to pre-wetted Multiscreen filter plates (96-well Dura PVDF 0.65 um Opaque; Millipore), which were kept on ice. Typically, 1×10⁵ of cells in 25 μl were used per well. Cells were incubated with 25 μl of binding buffer containing serial dilution of ¹²⁵I-GDF15 (2 fold serial dilution from 1000 pM to 0.1 pM final reaction concentration) with or without unlabeled GDF15 (500 nM final reaction concentration) for 2 hr at 4° C. Plates were then transferred to a vacuum filtration manifold (Pall Corporation) and supernatants were filtered. Each well was washed four times with 100 μl of ice cold binding buffer. Bound ¹²⁵I-GDF15 were measured by scintillation counting (150 μl/well of EcoLite, MP Biomedicals, Santa Anna, Calif.) using MicroBeta2 Plate Counter (Perkin Elmer). Bound (molecule/cell) was calculated according to a standard curve correlating CPM and molarity of ¹²⁵I-GDF15.
To determine the binding affinity of GDF15 to GFRAL, radio-labeled ¹²⁵I-GDF15 was used to bind HEK293 cells expressing human GFRAL (FIG. 2A) under equilibrium conditions. […] Excess amount of unlabeled GDF15 (500 nM) reduced the ¹²⁵I-GDF15-GFRAL binding to ‘non-specific’ background level. […]

| Binder | IC50 [1] [pM] | EC50 of Elk/GAL4-luciferase reporter in HEK293T cells co-transfected with mouse GFRAL and RET9 [2] [pM] | EC50 of Elk/GAL4-luciferase reporter in HEK293T cells co-transfected with rat GFRAL and RET9 [3] [pM] | EC50 of Elk/GAL4-luciferase reporter in HEK293T cells co-transfected with cynomolgus monkey GFRAL and RET9 [4] [pM] | EC50 of Elk/GAL4-luciferase reporter in HEK293T cells co-transfected with human GFRAL and human RET9 [5] [pM] | Kd [6] [pM] |
| --- | --- | --- | --- | --- | --- | --- |
| B1 | 400 | 1.5 | 6.2 | 5.2 | 2.1 |  |
| B2 |  |  |  |  |  | ~200 |
